Tests used:
[1] = molecular target: precursor (proFIX) of FIX alone produced in the presence of PACE-SOL (BeneFIX®) (UniProt P00740)
[2] = system: proFIX-Fc (FIX-Fc retaining the FIX propeptide; dimer or monomer form not given)

Sequence of precursor (proFIX) of FIX alone produced in the presence of PACE-SOL (BeneFIX®) (P00740 whole entry, looked up): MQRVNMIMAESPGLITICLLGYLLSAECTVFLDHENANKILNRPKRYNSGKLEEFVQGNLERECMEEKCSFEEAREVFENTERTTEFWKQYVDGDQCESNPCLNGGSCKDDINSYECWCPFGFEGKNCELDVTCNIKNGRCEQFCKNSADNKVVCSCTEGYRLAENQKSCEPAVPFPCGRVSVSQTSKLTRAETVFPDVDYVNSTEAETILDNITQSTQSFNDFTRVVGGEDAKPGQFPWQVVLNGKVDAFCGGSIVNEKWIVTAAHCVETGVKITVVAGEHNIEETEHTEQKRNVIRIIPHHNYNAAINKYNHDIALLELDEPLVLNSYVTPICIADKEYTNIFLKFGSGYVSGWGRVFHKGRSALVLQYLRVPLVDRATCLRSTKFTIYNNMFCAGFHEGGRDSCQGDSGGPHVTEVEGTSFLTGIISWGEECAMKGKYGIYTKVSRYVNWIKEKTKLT

Substance: PACE-SOL (soluble form of human PACE, amino acids 1-715)
- peptide mapping (tryptic digest, LC/MS) for the propeptide indicator peptide (PIP) [1]: FIX alone produced in the presence of PACE-SOL (BeneFIX®) appeared identical to FIX-Fc monomer produced with PC5 (FIG. 13), displaying no detectable PIP
- Propeptide Processing (Western blotting), CHO, transient transfection [2]: processes

From patent US20070259402
